Results on 5 molecules are retold here after patent US20220324953A1 (JIANGSU HENGRUI MEDICINE, published 2022).

Changes are numbered by the printed parent chain.

T1: human CTGF (antigen of the Biacore assays) (human, UniProt P29279 27-349)
T1 construct: also called antigen human CTGF; human CTGF protein
T1 sequence (looked up): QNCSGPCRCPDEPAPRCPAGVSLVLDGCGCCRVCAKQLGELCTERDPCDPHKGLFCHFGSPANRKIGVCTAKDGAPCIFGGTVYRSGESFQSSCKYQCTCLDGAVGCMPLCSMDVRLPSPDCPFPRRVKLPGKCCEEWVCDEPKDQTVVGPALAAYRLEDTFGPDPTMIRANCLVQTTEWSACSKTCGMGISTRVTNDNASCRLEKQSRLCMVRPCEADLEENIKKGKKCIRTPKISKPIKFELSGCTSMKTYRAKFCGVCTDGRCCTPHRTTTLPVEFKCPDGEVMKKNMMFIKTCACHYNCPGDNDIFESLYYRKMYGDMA

T2: human CTGF protein (R&D, Cat No. 9190-CC) (human, UniProt P29279 27-349)
T2 construct: Bought protein; also called CTGF recombinant protein; CTGF (R&D)
T2 sequence: T1 sequence (looked up) with H57D

B1: Hu164-67wl (antibody, human IgG1, lambda)
heavy: not shown
light: ETVVTQEPSLTVSPGGTVTLTCRSSIGAVTTSNYANWVQQKPGQAFRGLIGGTSNRAPWTPARFSGSLLGGKAALTLSGVQPEDEAEYYCALWYSTHYVFGGGTKLTVLGQPKANPTVTLFPPSSEELQANKATLVCLISDFYPGAVTVAWKADGSPVKAGVETTKPSKQSNNKYAASSYLSLTPEQWKSHRSYSCQVTHEGSTVEKTVAPTEC
B2: Hu147-33wk (antibody, human IgG1, kappa, V domains shown)
VH: EVQLVESGGGLVQPGGSLRLSCAASGFSFNTYAMNWVRQAPGKGLEWVARIRTKSNNYATYYADSVKDRFTISRDDSESSLYLQMNSLKTEDTAVYYCVETGFAYWDQGTLVTVSS
VL: EIVLTQSPATLSLSPGERATLSCSASSSVSYMHWFQQKPGQSPKLWIYSTSNLASGVPARFSGSGSGTDYTLTISSLEPEDFAVYYCQQRSSYPLTFGQGTKLEIKR
B3: Hu147-12wk (antibody, human IgG1, kappa, V domains shown)
VH: B2 VH with S28T, N30S, A49G, E78K, S79N
VL: B2 VL with W46L, V57I
B4: Hu147-14wk (antibody, human IgG1, kappa, V domains shown)
VH: B2 VH with S28T, N30S, A49G, E78K, S79N
VL: DIQMTQSPSSLSASVGDRVTITCSASSSVSYMHWFQQKPGKSPKLLIYSTSNLASGVPSRFSGSGSGTDYTLTISSLQPEDFATYYCQQRSSYPLTFGQGTKLEIKR
B5: Hu147-34wk (antibody, human IgG1, kappa, V domains shown)
VH: B2 VH
VL: B4 VL

The first test has as its target T1, human CTGF (antigen of the Biacore …). Description: Biacore, antibody captured on Protein A, CTGF in flow, 1:1 fit. The gist of the method: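 Antibodies captured on a Protein A chip, with human or mouse CTGF flowed over in HBS-EP running buffer; association and dissociation recorded in real time. Surface regenerated with glycine-HCl pH 1.5 between cycles; kinetics fitted to a 1:1 model.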
Turning to B1, the Kd (in general, a measure of binding affinity in units of concentration) was found to be 0.0379 nM; the koff (as a rule, the first-order rate constant of dissociation) turned out to be 0.00196 s⁻¹; the kon (in general, the rate constant with which the complex forms) turned out to be 5.17e+07 M⁻¹ s⁻¹.
For B2 the same measures were 0.713 nM, 0.0104 s⁻¹ and 1.45e+07 M⁻¹ s⁻¹.
Take B3: the Kd worked out at 0.969 nM, the koff amounted to 0.033 s⁻¹ and the kon is 3.41e+07 M⁻¹ s⁻¹.
For B4 the same measures were 1.13 nM, 0.0554 s⁻¹ and 4.89e+07 M⁻¹ s⁻¹.
For B5 the same measures were 1.05 nM, 0.0155 s⁻¹ and 1.47e+07 M⁻¹ s⁻¹.

The target in a further test is T2, human CTGF protein (R&D, Cat No. …). Put plainly: ELISA, plate coated with CTGF (R&D 9190-CC). The essentials:
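Plates were coated with recombinant human CTGF at 0.2 μg/ml in PBS pH 7.4 and blocked with 5% skim milk. Antibodies at serial concentrations were incubated 1 h at 37 °C, then detected with HRP anti-mouse or anti-human secondary and TMB at 450 nm. EC50 values were derived from the binding curves.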
Background: In an ELISA, binding on a coated surface is turned into a signal by an enzyme label.
With B1, a half-maximal effect (EC50) was put at 0.044 nM.
Turning to B2, a half-maximal effect (EC50) was put at 0.054 nM.
B3: it took 0.046 nM to reach a half-maximal effect (EC50).
Regarding B4, the EC50 (usually the concentration needed to bring the measured effect to its halfway point) was 0.073 nM.
On the same count and under the same terms, the value for B5 was 0.134 nM.

The next test addresses T1, human CTGF (antigen of the Biacore …). Description: Biacore, CTGF immobilised, antibody 150 µg/ml then 50 nM TGF-β1 (competitor TGF-β1). How it is done: First, the antigen human CTGF was immobilized onto a CMS biosensor chip (Cat. # BR-1005-30, GE) by amino coupling, with an immobilization level of 1500 RU, and then a high concentration of CTGF antibody (150 μg/ml) was allowed to flow through the surface of the chip for 150 s; 50 nM TGF-β1 protein was injected for 120 s, and the reaction signals were detected in real time with the Biacore T200 instrument to generate a binding and dissociation curve. After the dissociation was completed in each of the experimental cycles, the biosensor chip was washed and regenerated with regeneration buffer.
The resulting experimental data were statistically analyzed with GE Biacore T200 Evaluation version 3.0 software.
Regarding B1, the “Function-blocking percentage (%)” value was found to be 55.5%.
On the same count and under the same terms, the value for B2 was 57.3%.
With B3, the “Function-blocking percentage (%)” value came out at 51.6%.
The same measure, in the same setting: the value for B4 was 50.9%; that for B5 was 56.2%.
